For experiment [1], the target named is T1, recombinant human IL-17RA Fc fusion protein (R&D Systems 177-IR-100) (human, UniProt Q96F46 33-320).
T1 construct: Bought protein; not shown: Fc domain of human IgG1
T1 sequence: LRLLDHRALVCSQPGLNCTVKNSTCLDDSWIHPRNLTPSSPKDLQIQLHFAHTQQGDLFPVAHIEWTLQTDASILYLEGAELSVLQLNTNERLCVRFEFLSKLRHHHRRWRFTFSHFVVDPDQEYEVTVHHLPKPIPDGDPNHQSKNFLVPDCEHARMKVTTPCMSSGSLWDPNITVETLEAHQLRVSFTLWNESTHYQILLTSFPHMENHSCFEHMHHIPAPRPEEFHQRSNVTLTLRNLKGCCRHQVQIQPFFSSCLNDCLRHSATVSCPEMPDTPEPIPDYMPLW
In words: IL-17RA ligand inhibition ELISA (FIG. 10B): VH competes with IL-17A for coated IL-17RA-Fc. Here is the method: (§1) VH, both purified and crude periplasmic extracts, were also tested for their ability to inhibit the interaction of IL-17A with recombinant IL-17RA-Fc. […] Following washing of excess coating antigen, as described above, the wells of the plate were incubated with 3% Marvel/PBS to block non-specific protein interactions. VH preparations, crude periplasmic extracts or purified VH, or suitable controls, were prepared with 1 nM recombinant IL-17A (Peprotech, cat# AF-200-17) in 3% skimmed milk powder/PBS solution in polypropylene plates or tubes. The mixture was then transferred to the assay plate and incubated for 1 hour at room temperature. Excess protein was removed by washing and bound IL-17A was detected by incubation with biotinylated anti-IL-17A Mab (R & D Systems, cat BAF317) followed by the addition of neutravidin-HRP (Pierce, cat#31030) and TMB substrate (Sigma, cat# T0440). The TMB reaction was stopped by addition of 0.5M H₂SO₄ and absorbances were measured at 450 nm in a plate reader.
(An ELISA detects its analyte on a solid surface through an enzyme-linked reagent.)

In experiment [2] the target is T2, human IL-17RA on HT1080 cells (human, UniProt Q96F46 33-866).
T2 sequence: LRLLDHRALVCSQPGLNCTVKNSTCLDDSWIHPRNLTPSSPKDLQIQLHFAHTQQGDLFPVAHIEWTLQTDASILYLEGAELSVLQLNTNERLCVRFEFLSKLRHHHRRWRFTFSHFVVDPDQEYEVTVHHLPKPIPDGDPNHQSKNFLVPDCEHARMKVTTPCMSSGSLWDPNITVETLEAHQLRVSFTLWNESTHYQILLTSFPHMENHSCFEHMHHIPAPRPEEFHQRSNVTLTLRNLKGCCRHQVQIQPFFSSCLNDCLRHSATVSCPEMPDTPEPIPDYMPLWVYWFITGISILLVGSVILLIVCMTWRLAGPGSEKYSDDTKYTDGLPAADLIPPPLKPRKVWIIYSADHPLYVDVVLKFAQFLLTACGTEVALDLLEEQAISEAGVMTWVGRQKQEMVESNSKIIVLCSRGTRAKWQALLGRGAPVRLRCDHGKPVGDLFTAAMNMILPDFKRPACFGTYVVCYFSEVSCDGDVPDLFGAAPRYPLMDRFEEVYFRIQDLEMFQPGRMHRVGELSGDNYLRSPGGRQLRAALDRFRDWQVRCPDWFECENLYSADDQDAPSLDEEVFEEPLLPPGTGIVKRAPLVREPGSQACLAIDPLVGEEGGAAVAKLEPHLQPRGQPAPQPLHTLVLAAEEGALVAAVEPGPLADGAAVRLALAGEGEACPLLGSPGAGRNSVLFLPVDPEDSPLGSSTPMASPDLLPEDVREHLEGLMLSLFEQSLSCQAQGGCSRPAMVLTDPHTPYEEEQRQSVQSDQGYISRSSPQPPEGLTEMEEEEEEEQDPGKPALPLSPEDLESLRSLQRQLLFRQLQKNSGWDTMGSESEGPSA
In words: cell-based or functional assay.

Experiment [3] addresses T1, recombinant human IL-17RA Fc fusion …. Description: affinity against parent clone 2.1; method not given.
Experiment [4] has as its target T2, human IL-17RA on HT1080 cells. Description: cell-based or functional assay. This is another data set of the same source.
The target of experiment [5] is T1, recombinant human IL-17RA Fc fusion …. Description: receptor/ligand biochemical inhibition ELISA: VH competes with 1 nM IL-17A for coated IL-17RA-Fc. The procedure:
as §1

For experiment [6] the target is unchanged. In words: BIAcore T200 single-cycle kinetics, IL-17RA-Fc captured on protein G chip, VH as analyte. Here is the method:
Binding kinetics of anti-IL-17RA VH antibodies were measured on a BIAcore® T200 instrument. For IL-17RA, first a protein G chip was prepared by diluting protein G to 20 ug/ml in acetate buffer, pH 4 (BIAcore®, cat# BR-100-49) and then coupled 1200 RU to a CM5 Series S chip using amine coupling chemistry. This surface was then used to capture IL-17RA Fc fusion protein from solution: IL-17RA at 10 ug/ml in HBS injected for 10 seconds at 30 ul/min flow rate would capture approximately 100-150 RU of IL-17RA onto the protein G surface.
Binding kinetics of anti-IL-17RA VH antibodies were determined by single-cycle kinetics. VH antibodies were prepared in dilution series (typically 1:3 dilution series starting with 100 nM VH at the highest concentration), and then injected over the antigen coated surfaces and also a blank surface, starting with the lowest concentration of VH and then working progressively up to the highest concentration. VH binding kinetics were then determined from the (blank subtracted) sensorgram traces using 1:1 binding models and BIAevaluation software.

B1: VH clone 3.20 (VHH)
VHH: QVQLVESGGGLVQPGGSLRLSCAASGFPFSTYWMRWLRQAPGKGLEWVANIKQDGSEKYYVDSVKGRFTISRDNAKNSLFLQMNSLRAEDTAVYYCARGWESGWFEPWGQGTLVTVSS
notes: Human VH single domain antibody, no light chain; Family 3; also called VH 3.20
Regarding B1, the IC50 in experiment [1] was found to be 22 nM.

B2: VH clone 2.2 (VHH)
VHH: QVQLVQSGAEVKKPGASVKVSCKASGYPFTSYDINWVRQATGRSLEWMGWMNPTNGNTVYAQKFQDRVTMTRNTSISTAYMELSSLRSEDTAVYFCARGRRDDWKNNYWGQGTLVTVSS
notes: Human VH single domain antibody, no light chain; Optimised variant of clone 2.1; also called VH 2.2
Consider B2, for which the “IC50 (nM), cell-based assay” value in experiment [2] was 165 nM. Moreover, the “fold improvement in affinity against clone 2.1” value in experiment [3] is 10 fold. In experiment [4], the “Cell assay IC50” value was determined as 61 nM. Further, in experiment [5], the IC50 amounted to 1.4 nM. In addition, in experiment [6], the Kd came to 1.4 nM, the koff was 0.000799 s⁻¹ and the kon came to 579000 M⁻¹ s⁻¹.

As a reminder, the IC50 is the point on the concentration scale where inhibition reaches its midpoint. The Kd is a measure of binding affinity in units of concentration. One may read the koff as the first-order rate constant of dissociation. As a reminder, the kon is the second-order rate constant of association.

Values taken from patent publication US20180215829A1 (CRESCENDO BIOLOGICS, published 2018).
